From patent US20200071394A1 (HUABO BIOPHARM SHANGHAI, published 2020)
Like-named read-outs stand apart in the source and are kept apart here.

What was measured:
[1] = biological target: T1, Recombinant Human IL-17A, Sino Biological, 12047-HNAS (human, UniProt Q16552 24-155, limits assumed); experiment: cell-based or functional assay
[2] = biological target: T1, Recombinant Human IL-17A, Sino …; experiment: cell-based or functional assay; remark: listed apart in the source
[3] = biological target: T1, Recombinant Human IL-17A, Sino …; experiment: indirect ELISA, human IL-17A coated
[4] = biological target: T2, Recombinant rat IL-17A, ABGENT, PBV10154r (rat, UniProt Q61453 18-150, limits assumed); experiment: indirect ELISA, rat IL-17A coated
T2 sequence (looked up): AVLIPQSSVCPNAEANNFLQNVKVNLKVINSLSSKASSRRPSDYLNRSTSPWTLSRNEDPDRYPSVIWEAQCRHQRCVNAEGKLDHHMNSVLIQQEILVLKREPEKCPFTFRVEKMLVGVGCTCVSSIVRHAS

[5] = biological target: T1, Recombinant Human IL-17A, Sino …; experiment: indirect ELISA, human IL-17A coated; remark: listed apart in the source
Method: (§1) Human IL-17A was formulated into a 1 μg/ml coating solution with CBS, and added to the ELISA plate at 50 μL/well, and the plate was coated at 2 to 8° C. for 12 hours or longer. The residue coating solution was discarded, 3% milk was added, 200 μL per well, and the plate was blocked at room temperature for 1 hour. Each well was washed with not less than 200 μL of PBST, and the hybridoma supernatant was diluted to 100 μg/ml, and was 10-fold diluted for 10 gradients, and added to the plate at 100 μL/well. […] After incubating for 1 hour at room temperature, each well was added with not less than 200 μL of PBST and washed 4 times, and patted to dryness. TMB development solution was added at 100 μL per well. After reacting for 5 minutes at room temperature, the reaction was quenched by adding 2M H₂SO₄ at 50 μL/well. After the reaction was quenched, the ELISA plate was placed on a microplate reader, and the absorbance OD450 value was read at a wavelength of 450 nm.

[6] = biological target: T3, Recombinant Mouse IL-17A, Sino Biological, PBV10159R-010 (mouse, UniProt Q62386 26-158); experiment: indirect ELISA, mouse IL-17A coated
T3 construct: also called murine IL-17A
T3 sequence (looked up): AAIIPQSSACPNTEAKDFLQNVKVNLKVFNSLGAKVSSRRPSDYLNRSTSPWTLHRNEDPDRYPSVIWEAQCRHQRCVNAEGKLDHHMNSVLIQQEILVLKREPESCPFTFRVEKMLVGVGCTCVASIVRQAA
Method: as §1

[7] = biological target: T1, Recombinant Human IL-17A, Sino …; experiment: indirect ELISA, human IL-17A coated; remark: listed apart in the source
Method: as §1

[8] = biological target: T1, Recombinant Human IL-17A, Sino …; experiment: indirect ELISA, human IL-17A coated; remark: listed apart in the source
Method: as §1

[9] = biological target: T4, Recombinant Rhesus IL-17A, Sino Biological, 90306-KNAB (Rhesus, UniProt F6T3G5 24-155); experiment: indirect ELISA, Rhesus IL-17A coated
T4 construct: also called macaque IL-17A
T4 sequence (F6T3G5 entry or part of it): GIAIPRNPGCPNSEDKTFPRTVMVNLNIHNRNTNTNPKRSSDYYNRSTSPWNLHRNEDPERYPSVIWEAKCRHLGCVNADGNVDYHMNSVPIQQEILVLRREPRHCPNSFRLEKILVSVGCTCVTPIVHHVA

[10] = biological target: T5, Recombinant human IL-17B, R&D, 8129-IL (human, UniProt Q9UHF5 21-180); experiment: indirect ELISA, IL-17B coated at 1 µg/ml
T5 sequence (looked up): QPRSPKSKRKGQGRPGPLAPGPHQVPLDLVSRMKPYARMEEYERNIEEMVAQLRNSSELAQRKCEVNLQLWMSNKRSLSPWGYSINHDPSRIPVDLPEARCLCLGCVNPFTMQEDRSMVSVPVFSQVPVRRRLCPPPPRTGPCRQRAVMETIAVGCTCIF

[11] = biological target: T6, Recombinant human IL-17D, Sino Biological, 10076-H08S (human, UniProt Q8TAD2 16-202); experiment: indirect ELISA, IL-17D coated at 1 µg/ml
T6 sequence (looked up): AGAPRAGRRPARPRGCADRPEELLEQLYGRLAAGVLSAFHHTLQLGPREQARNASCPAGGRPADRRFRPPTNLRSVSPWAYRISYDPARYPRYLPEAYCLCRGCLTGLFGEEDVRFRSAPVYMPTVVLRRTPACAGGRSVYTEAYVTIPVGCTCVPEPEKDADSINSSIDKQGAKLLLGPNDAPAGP
Method: as §1

[12] = biological target: T7, Recombinant human IL-17E, ABGENT, PBV10154r (human, UniProt Q9H293 33-177, limits assumed); experiment: indirect ELISA, IL-17E coated at 1 µg/ml
T7 construct: The catalogue number printed is the same as that printed for rat IL-17A; also called IL-25
T7 sequence (looked up): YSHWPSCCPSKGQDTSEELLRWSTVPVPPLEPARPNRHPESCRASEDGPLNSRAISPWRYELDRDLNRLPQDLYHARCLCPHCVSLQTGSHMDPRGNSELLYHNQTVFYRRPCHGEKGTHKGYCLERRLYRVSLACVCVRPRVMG
Method: as §1

[13] = biological target: T1, Recombinant Human IL-17A, Sino …; experiment: SPR (Biacore), antibody captured by anti-human antibody on the chip, IL-17A as analyte, 1:1 model
Method: In this example, the antigen-antibody binding kinetics and affinity were determined using BIACORE method.
Human Antibody Capture Antiboy was amino-coupled immobilized on the Sereis S Sensor Chip CMS chip using Amine Coupling Kit, anti-Human Capture-CMS chip. The chip was placed at room temperature for 20-30 mins, and loaded into the instrument. The antigen was diluted with equilibration buffer at an initial dilution of lOnM, and was diluted for 5 concentration gradients. 2 zero concentrations (i.e., equilibration buffer) and one repeat concentration (generally the lowest concentration repeat) were set. The antibody sample was diluted to the experimental working concentration with an equilibration buffer and sealed at 2-8° C.

[14] = biological target: T1, Recombinant Human IL-17A, Sino …; experiment: indirect ELISA, human IL-17A coated; remark: listed apart in the source
Method: as §1

[15] = biological target: T3, Recombinant Mouse IL-17A, Sino …; experiment: indirect ELISA, mouse IL-17A coated; remark: listed apart in the source
Method: as §1

[16] = biological target: T1, Recombinant Human IL-17A, Sino …; experiment: indirect ELISA, human IL-17A coated, hybridoma supernatant
Method: as §1

T1 sequence (Q16552 24-155 limits assumed, form in doubt): as the sequence (F6T3G5 entry or part of it) above, with A3T, T17N, V77I, R104P counted along it

B1: humanized anti-IL-17A antibody HB0017 (antibody, human IgG1, V domains shown)
VH: QVQLVQSGSELKKPGASVKVSCKASEYIFTNYGMNWVKQAPGQGFEWMGWIDTNTGEPTYAQGFTGRFVFSLDTSVSTAYLQISSLKAEDTATYYCANYGWGYFDYWGQGTTVTVSS
VL: DVVMTQTPPSLPVNPGEPASISCRSSQSLVHSNGYTYLHWYLQKPGQSPQLLIYKVSNHLSGVPDRFSGSGSGTDFTLKISWVEAEDVGVYFCSQSTHVPYTFGGGTKLEIK
notes: also called HB0017 antibody; HBH17 antibody
In the case of B1, the “biological activity (IL-6 release by HT1080 cells) against the positive control antibody” value [1] is reported as roughly 6 fold, the “IC50 of IL-6 release by HT1080 cells stimulated with IL-17A and TNFα” value [2] is reported as 0.09 µg/mL and the “improvement of EC50 against the chimeric antibody” value [3] is reported as roughly 150%. For the same binder, the “improvement of EC50 against the original murine antibody” value [3] was roughly 11.6 times, the EC50 [4] was 0.24 µg/mL and the EC50 [5] was 0.0154 µg/mL. For the same binder, the EC50 [6] was 0.075 µg/mL, the EC50 [7] was 0.0154 µg/mL and the EC50 [8] was 0.0154 µg/mL. For the same binder, the EC50 [9] was 0.088 µg/mL, the binding result [10] was “no binding” and the binding result [11] was “no binding”. For the same binder, the binding result [12] was “no binding” and the Kd [13] was 0.0198 nM.

B2: Chimeric antibody (mouse 7D6/5H8 VH and VL on human IgG1 and k constant regions) (antibody, V domains shown)
VH: QIQLVQSGPELKKPGETVKISCKASEYIFTNYGMNWVKEAPGKAFKWMGWIDTNTGEPTYAEDFKGRFAFSLDSSATSAFLQISNLKDDDTGTYFCANYGWGYFDYWGQGTTLTVSS
VL: DVVMTQTPLSLPVSLRDQASISCISSQSLVHSNGYTYLHWYLQKPGQSPKLLIYKVSNRFSGVPDRFSGSGSGTDFTLKISRVEAADLGVYFCSQSTHVPYTFGGGTKLEIK
notes: Human IgG1 heavy chain constant region and human kappa light chain constant region; Expressed in CHO-K1 cells
B2 showed an EC50 [14] of 0.0386 µg/mL and an EC50 [15] of 0.0392 µg/mL.

B3: mouse anti-human IL-17A monoclonal antibody of hybridoma 7D6/5H8 (antibody, V domains shown)
VH: B2 VH
VL: B2 VL
notes: Mouse antibody from hybridoma supernatant; also called original murine antibody; IL17-HC1 / IL17-LC1
B3 was tested, and the EC50 [16] was 0.194 µg/mL.
